Laboratory results: PMC3564526 (Molecular Biology of the Cell, 2013)

Target: T1, PH^Ste5 domain (Ste5 aa 373–537), bacterially expressed and purified (S. cerevisiae, UniProt P32917 373-537)
T1 sequence (looked up): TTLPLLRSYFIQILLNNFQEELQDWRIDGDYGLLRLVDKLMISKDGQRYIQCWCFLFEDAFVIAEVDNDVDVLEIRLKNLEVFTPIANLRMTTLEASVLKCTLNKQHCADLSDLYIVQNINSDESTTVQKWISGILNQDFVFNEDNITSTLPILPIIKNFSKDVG
Test: SPR

B1: His-tagged RBL^Ste11 domain (Ste11 aa 116–236) (domain or fragment, S. cerevisiae, UniProt P23561 116-236, looked up)
chain: PEKHCVIFILNDGSAKKVNVNGCFNADSIKKRLIRRLPHELLATNSNGEVTKMVQDYDVFVLDYTKNVLHLLYDVELVTICHANDRVEKNRLIFVSKDQTPSDKAISTSKKLYLRTLSALS
Q: B1 was tested. Which Kd did it give?
A: The Kd was about 200 nM.
